Experimental data published in paper PMC6181972, “Indoleacetate decarboxylase is a glycyl radical enzyme catalysing the formation of malodorant skatole” (Nature Communications, 2018).

What was measured:
purified protein = substrate: O=C(O)Cc1c[nH]c2ccccc12; assay: purified protein; details: activated with 100 nM OsIADAE, 1 mM SAM, 0.2 mM Ti(III) citrate, 20 mM Tris-HCl pH 7.5, 0.1 M KCl, 30 °C, anaerobic
[1] = biological target: the molecule itself; assay: SEC; size exclusion chromatography of purified recombinant OsIAD; column and buffer not told in the text shown (Supplementary Fig. 1c); dimer to monomers

B1: Olsenella scatoligenes indoleacetate decarboxylase (OsIAD) (enzyme, UniProt A0A100YXA1 1-878, looked up)
chain: MQESLVLEMLQTGKTATWPANSGTQDGEGFVDKEVKGVPSTDRTKRMKERFMNAKCKMDMEAPIAYTKAWRMYEGKPLYVRRGLSYKYMLEHLTPVIRPDELITMSKTRYDRGATQVPQFATDFMISFLTQAEDQKDEAKLFSVEGKDEAHTVDEEGWTPVGQLFSIREEEVKPMLEVLEYWKTRCVENVSDEWMKTSFPMYQDYINAKKVGLFPGSGLHAGCDGRWIPAYDVVLGGLNKVIDECKKNIAKTVVTTKDVADKVFFWQGCIYACEGAIAWANNYAKEARRLAEITPEPRKTELLQMAERLERVPAEPPRNFMEAVQALWTAQILIISDSLALGVSPGRWGKLLEPYYEKDLADGVITKEQALEVMEMLRIKFSTEEYITPSLWAAMASSNSFMNLAVGGLDPKTGQCTDNELEDLILQAGINMPTPQPTLSMLLSNKTSDHLALKAAECTKAGNGYPAWFNYDMMVEHNLWCYADEGITMEDARNCALSGCVENGLAGTGHPIAHPAFYNEGKTIELALHEGVDPRTGIKVMDGIKPVESYEDVWNNFVKIREHFMRVYMRYWNEVVACQRDIHPKIMGSIFMHDCVENGRPVDNLGCRYNGSVTLLDSGTVNVVNGLAAMKKLIWEDHKYTYAEFKEAMDNNFGFVLGAEKGNFSMLNQEIDPEKHMKYAQIHRDILNCPKFGNDDDFVDDIFVKVWQDYDRVTGSETTYNGYRWITAALSISAHGPHGRVTGATPDGRLAGVTLCDGILSASPGTDVNGPIALIRSGVKLDPTTFASVQLNMKFHPSAIRGEEGSKNFVDFIRSYFNMGGYHVQFNIVDSKMLRDAQDKPQNYRDLMVRVAGFSAYWNELGKPIQDEVIARTEYDAL
notes: Indoleacetate decarboxylase (glycyl radical enzyme) of Olsenella scatoligenes, UniProt A0A100YXA1; codon-optimized synthetic gene in pET-28a-HT (His6-tag, TEV protease cleavage site, then the construct); also called HT-IAD; A0A100YXA1; source: E. coli BL21 (DE3), purified (TALON, ammonium sulfate precipitation, G25 desalting)
Purified protein
  Km: 370 ± 60 µM
  kcat: 2.0 ± 0.1 s^–1
[1]
  stoichiometry N: 2
